# Measured values published in patent US20250270529.
# Test system: T1, Cas13f v3 (v2+D160A&D642A) (synthetic construct)
# T1 sequence: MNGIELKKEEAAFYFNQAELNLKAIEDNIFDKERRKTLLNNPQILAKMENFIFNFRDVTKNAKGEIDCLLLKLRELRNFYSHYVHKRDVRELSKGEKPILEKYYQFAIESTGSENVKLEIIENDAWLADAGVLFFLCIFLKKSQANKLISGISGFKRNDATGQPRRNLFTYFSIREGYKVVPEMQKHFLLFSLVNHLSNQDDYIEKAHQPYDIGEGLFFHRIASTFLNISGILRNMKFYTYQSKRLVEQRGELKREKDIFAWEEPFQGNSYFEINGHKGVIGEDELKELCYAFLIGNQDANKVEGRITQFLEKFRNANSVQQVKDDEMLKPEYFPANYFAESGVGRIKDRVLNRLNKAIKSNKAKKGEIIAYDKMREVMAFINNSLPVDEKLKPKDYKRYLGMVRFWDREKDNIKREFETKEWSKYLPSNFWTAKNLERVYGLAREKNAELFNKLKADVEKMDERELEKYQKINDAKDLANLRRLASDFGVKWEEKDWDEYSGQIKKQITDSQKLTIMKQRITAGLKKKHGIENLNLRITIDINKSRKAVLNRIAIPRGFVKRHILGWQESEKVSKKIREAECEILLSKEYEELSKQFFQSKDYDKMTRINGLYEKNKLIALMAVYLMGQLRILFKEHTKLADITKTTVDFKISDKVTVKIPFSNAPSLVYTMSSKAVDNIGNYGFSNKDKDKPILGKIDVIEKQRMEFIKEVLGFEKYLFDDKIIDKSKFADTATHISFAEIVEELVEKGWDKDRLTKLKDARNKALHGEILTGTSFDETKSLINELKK
# Assay: cell_activity
# Settings: HEK293T; non-targeting spacer control
substance,measurement,value
non-targeting gRNA (DR-spacer-DR) ; mCherry reporter mRNA,activity (RFP MFI (normalization reference)),1
